For test [1], the target named is T1, human FcγRIIIaV extracellular domain, His-tagged (human, UniProt P08637 17-208).
T1 construct: also called human FcgRIIIaV
As to the kind of experiment: SPR (Biacore), 25C, FcgR bound per antibody captured.

Test [2] addresses T2, human FcγRIIaH extracellular domain, His-tagged (human, UniProt P12318 34-217).
T2 construct: also called human FcgRIIaH; FcγRIIa type H
T2 sequence: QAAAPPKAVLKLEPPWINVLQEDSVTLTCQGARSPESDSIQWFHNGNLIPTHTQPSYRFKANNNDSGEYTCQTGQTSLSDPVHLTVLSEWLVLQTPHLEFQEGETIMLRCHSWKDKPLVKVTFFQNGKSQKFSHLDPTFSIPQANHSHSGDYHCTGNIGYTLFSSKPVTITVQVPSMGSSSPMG
The description is as above.

The target of test [3] is T3, cynomolgus monkey FcγRIIIaS extracellular domain with C-terminal His-tag (cynomolgus monkey, UniProt A3RFZ7 21-206 (rhesus entry)).
T3 construct: also called cyno FcgRIIIaS; cynoFcγRIIIaS; not shown: His-tag added to the C-terminus
Briefly: SPR (BIACORE); KD of SG1 / KD of variant. How it is done:
(§1) The kinetic analysis of interactions between these antibodies and FcγR was carried out using BIACORE® T200 or BIACORE® 4000 (GE Healthcare). HBS-EP+ (GE Healthcare) was used as the running buffer, and the measurement temperature was set to 25° C. […] After the measurement, the antibody captured on the chip was washed off by allowing reaction with 10 mM glycine-HCl, pH1.5 and 25 mM NaOH so that the chip was regenerated and used repeatedly. The sensorgrams obtained as measurement results were analyzed by the 1:1 Langmuir binding model using the BIACORE® Evaluation Software to calculate the binding rate constant ka (L/mol/s) and dissociation rate constant kd (1/s), and the dissociation constant KD (mol/L) was calculated from these values. […] Regarding such interactions, KD values were calculated using the following 1:1 binding model described in BIACORE® T100 Software Handbook BR1006-48 Edition AE.

Test [4] deals with T3, cynomolgus monkey FcγRIIIaS …. Briefly: SPR (BIACORE), antibody captured, FcgR analyte. A general note: SPR reads the build-up and loss of mass on a sensor chip optically.
Test [5] addresses T4, cynomolgus monkey FcγRIIIaS extracellular domain with C-terminal His-tag (cynomolgus monkey, UniProt Q8SPW2 21-206 at identity 1.00)).
T4 construct: also called cyno FcgRIIIaS; cynoFcγRIIIaS
T4 chain: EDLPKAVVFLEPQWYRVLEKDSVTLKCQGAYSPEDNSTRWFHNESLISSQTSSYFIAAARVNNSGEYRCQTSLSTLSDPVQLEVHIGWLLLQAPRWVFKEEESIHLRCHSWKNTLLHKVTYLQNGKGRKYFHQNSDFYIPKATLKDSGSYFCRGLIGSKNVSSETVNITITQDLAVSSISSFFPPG
As to the kind of experiment: SPR, KD(parent SG1)/KD(variant).

Test [6] deals with T5, cynomolgus monkey FcγRIIa3 extracellular domain with C-terminal His-tag (cynomolgus monkey).
T5 construct: also called cyno FcgRIIa3; cynoFcγRIIa3; not shown: His-tag added to C-terminus
T5 chain: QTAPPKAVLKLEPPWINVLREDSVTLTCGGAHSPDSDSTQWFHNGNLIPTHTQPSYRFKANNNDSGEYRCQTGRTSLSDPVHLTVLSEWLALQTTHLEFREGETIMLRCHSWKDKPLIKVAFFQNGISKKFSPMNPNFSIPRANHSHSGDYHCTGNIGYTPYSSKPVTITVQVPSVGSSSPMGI
As to the kind of experiment: SPR Biacore, antibody captured, FcgR analyte. The procedure:
as §1

Test [7] deals with T6, cynomolgus monkey FcγRIIIaS extracellular domain with C-terminal His-tag (cynomolgus monkey, UniProt A3RFZ7 21-206 (rhesus entry)).
T6 construct: also called cyno FcgRIIIaS; cynoFcγRIIIaS; not shown: His-tag added to C-terminus
As to the kind of experiment: SPR Biacore, antibody captured, FcgR analyte. How it is done: as §1

For test [8], the target named is T7, human FcγRIIb extracellular domain with C-terminal His-tag (human, UniProt P31994 43-217).
T7 construct: also called human FcgRIIb; not shown: His-tag added to C-terminus
T7 sequence: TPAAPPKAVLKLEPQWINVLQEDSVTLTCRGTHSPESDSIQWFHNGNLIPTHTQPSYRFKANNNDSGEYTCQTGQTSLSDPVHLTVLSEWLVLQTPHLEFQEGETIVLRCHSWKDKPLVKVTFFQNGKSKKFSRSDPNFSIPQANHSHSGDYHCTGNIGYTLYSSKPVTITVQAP
As to the kind of experiment: SPR Biacore, antibody captured, FcgR analyte. The procedure: as §1

T1 sequence (P08637 17-208 F176V): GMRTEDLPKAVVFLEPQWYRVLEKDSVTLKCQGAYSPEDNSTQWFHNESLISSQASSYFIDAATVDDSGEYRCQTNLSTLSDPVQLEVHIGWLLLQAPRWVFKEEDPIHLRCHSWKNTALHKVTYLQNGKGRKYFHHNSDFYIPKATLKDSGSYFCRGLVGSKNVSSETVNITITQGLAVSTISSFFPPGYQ

B1: GpH7-B3 G237Y / GpL16-k0 (antibody, human IgG1, kappa)
heavy: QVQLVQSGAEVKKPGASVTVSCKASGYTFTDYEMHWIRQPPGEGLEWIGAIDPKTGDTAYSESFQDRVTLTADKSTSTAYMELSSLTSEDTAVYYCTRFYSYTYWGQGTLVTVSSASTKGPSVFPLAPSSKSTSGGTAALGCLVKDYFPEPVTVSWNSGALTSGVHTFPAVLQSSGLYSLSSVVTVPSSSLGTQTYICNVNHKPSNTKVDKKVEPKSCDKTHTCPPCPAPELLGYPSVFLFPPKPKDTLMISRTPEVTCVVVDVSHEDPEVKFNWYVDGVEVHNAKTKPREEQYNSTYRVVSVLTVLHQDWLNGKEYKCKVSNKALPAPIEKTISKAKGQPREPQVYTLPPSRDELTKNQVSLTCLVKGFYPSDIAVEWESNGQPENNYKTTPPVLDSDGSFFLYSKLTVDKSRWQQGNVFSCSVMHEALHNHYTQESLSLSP
light: DIVMTQSPLSLPVTPGEPASISCQASESLVHSNRNTYLHWYLQKPGQSPQLLIYKVSNRFSGVPDRFSGSGSGTDFTLKISRVEAEDVGVYYCSQNTHVPPTFGQGTKVEIERTVAAPSVFIFPPSDEQLKSGTASVVCLLNNFYPREAKVQWKVDNALQSGNSQESVTEQDSKDSTYSLSSTLTLSKADYEKHKVYACEVTHQGLSSPVTKSFNRGEC
notes: also called B3 variant G237Y
B1: the entries for the “Binding to human FcgRs (parent B3 = 100)” value in test [1] and in test [2] were 0 and 77, respectively.

B2: GpH7-B3 P238M / GpL16-k0 (antibody, human IgG1, kappa)
heavy: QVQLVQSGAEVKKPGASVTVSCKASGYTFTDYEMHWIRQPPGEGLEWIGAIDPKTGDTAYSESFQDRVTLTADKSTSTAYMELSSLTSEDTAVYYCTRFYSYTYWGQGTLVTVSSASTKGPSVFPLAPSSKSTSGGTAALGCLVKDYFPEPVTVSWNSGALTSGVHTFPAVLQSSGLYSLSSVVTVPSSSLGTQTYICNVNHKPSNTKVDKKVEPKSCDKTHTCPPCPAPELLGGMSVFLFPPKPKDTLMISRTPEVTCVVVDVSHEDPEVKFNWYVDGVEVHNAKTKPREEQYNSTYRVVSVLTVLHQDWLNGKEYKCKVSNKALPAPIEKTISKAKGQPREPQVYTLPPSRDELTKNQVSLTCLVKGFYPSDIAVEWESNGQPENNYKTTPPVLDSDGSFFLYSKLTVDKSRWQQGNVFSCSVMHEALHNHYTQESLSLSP
light: DIVMTQSPLSLPVTPGEPASISCQASESLVHSNRNTYLHWYLQKPGQSPQLLIYKVSNRFSGVPDRFSGSGSGTDFTLKISRVEAEDVGVYYCSQNTHVPPTFGQGTKVEIERTVAAPSVFIFPPSDEQLKSGTASVVCLLNNFYPREAKVQWKVDNALQSGNSQESVTEQDSKDSTYSLSSTLTLSKADYEKHKVYACEVTHQGLSSPVTKSFNRGEC
notes: also called B3 variant P238M
B2: the “Binding to human FcgRs (parent B3 = 100)” value in test [1] stood at 2; in test [2], 86.

B3: GpH7-B3 N325I / GpL16-k0 (antibody, human IgG1, kappa)
heavy: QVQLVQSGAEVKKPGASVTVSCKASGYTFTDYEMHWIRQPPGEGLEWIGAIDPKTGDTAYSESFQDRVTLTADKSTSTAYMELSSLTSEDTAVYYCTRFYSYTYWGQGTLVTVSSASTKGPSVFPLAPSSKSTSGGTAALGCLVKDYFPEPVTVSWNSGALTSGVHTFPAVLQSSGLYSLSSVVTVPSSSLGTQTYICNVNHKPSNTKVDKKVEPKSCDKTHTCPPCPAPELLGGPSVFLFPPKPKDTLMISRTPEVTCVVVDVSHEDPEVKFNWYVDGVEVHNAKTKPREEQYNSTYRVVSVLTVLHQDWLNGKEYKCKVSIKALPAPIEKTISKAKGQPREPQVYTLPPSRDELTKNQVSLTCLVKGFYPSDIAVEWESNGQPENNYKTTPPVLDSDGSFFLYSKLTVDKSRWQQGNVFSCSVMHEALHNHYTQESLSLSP
light: DIVMTQSPLSLPVTPGEPASISCQASESLVHSNRNTYLHWYLQKPGQSPQLLIYKVSNRFSGVPDRFSGSGSGTDFTLKISRVEAEDVGVYYCSQNTHVPPTFGQGTKVEIERTVAAPSVFIFPPSDEQLKSGTASVVCLLNNFYPREAKVQWKVDNALQSGNSQESVTEQDSKDSTYSLSSTLTLSKADYEKHKVYACEVTHQGLSSPVTKSFNRGEC
notes: also called B3 variant N325I
In the case of B3, the entries for the “Binding to human FcgRs (parent B3 = 100)” value in test [1] and in test [2] were 1 and 76, respectively.

B4: M103205H795-MY001/M103202L889-SK1 (antibody, human IgG1, kappa, name in EU numbering)
heavy: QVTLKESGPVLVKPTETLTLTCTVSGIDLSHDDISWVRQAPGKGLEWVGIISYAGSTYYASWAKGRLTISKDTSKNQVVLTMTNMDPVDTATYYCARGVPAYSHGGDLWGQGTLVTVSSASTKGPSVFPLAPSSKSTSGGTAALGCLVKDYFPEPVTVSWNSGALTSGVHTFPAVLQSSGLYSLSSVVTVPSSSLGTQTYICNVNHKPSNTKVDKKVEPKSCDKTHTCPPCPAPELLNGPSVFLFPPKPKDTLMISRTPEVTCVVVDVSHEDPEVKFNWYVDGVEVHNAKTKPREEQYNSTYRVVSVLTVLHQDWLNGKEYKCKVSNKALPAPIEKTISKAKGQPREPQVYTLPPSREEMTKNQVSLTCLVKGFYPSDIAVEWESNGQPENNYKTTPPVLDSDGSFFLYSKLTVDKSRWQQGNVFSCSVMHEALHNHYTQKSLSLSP
light: DIVMTQSPATLSLSPGERATLSCTSSQSVYHANWLSWFQQKPGQPPKLLIYWASTLAYGVPSRFSGSGSGTDFTLTISSLQPEDAATYYCAGGYGGGRYAFGQGTKVEIKRTVAAPSVFIFPPSDEQLKSGTASVVCLLNNFYPREAKVQWKVDNALQSGNSQESVTEQDSKDSTYSLSSTLTLSKADYEKHKVYACEVTHQGLSSPVTKSFNRGEC
notes: Fc variant of MS1032LO06-SG1; positions in EU numbering
Broadly, the Kd is the equilibrium constant for the complex coming apart. For the molecule B4, the “KD fold (SG1 = 1)” value in test [3] is 0.05 fold. The molecule further registered a Kd in test [4] of 32 µM.

B5: MS1032LO19-SG1 (antibody, human IgG1, kappa)
heavy: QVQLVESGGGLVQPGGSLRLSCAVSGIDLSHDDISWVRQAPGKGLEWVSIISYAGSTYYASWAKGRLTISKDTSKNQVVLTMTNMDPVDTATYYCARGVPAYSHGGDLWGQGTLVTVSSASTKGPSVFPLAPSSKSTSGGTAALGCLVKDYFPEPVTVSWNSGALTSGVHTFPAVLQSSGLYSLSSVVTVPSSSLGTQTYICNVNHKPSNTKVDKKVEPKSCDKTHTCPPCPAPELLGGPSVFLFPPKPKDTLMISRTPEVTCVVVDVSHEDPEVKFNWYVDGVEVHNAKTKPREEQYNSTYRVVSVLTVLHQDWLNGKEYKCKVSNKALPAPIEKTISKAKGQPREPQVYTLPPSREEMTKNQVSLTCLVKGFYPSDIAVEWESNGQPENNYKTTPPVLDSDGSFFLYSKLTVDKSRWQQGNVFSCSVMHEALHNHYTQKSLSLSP
light: DIVMTQSPATLSLSPGERATLSCTTSQSVYHENWLSWFQQKPGQPPKLLIYWASTLAYGVPSRFSGSGSGTDFTLTISSLQPEDAATYYCAGGYGGGRYAFGQGTKVEIKRTVAAPSVFIFPPSDEQLKSGTASVVCLLNNFYPREAKVQWKVDNALQSGNSQESVTEQDSKDSTYSLSSTLTLSKADYEKHKVYACEVTHQGLSSPVTKSFNRGEC
notes: tied to rows r13/r31 by row order only; also called MS103240H795-SG1; copies: 2 + 2
As to B5, the “KD fold (SG1 = 1)” value in test [5] amounted to 1 fold.

B6: M103205H795-MY181/M103202L889-SK1 (antibody, human IgG1, kappa, name in EU numbering)
heavy: QVTLKESGPVLVKPTETLTLTCTVSGIDLSHDDISWVRQAPGKGLEWVGIISYAGSTYYASWAKGRLTISKDTSKNQVVLTMTNMDPVDTATYYCARGVPAYSHGGDLWGQGTLVTVSSASTKGPSVFPLAPSSKSTSGGTAALGCLVKDYFPEPVTVSWNSGALTSGVHTFPAVLQSSGLYSLSSVVTVPSSSLGTQTYICNVNHKPSNTKVDKKVEPKSCDKTHTCPPCPAPELLNGPSVFLFPPKPKDTLMISRTPEVTCVVVDVSEEDPEVKFNWYVDGVEVHNAKTKPREEQYNSTYRVVSVLTVLHQDWLNGKEYKCKVSNKALPAPIEKTISKAKGQPREPQVYTLPPSREEMTKNQVSLTCLVKGFYPSDIAVEWESNGQPENNYKTTPTVLDSDGSFFLYSKLTVDKSRWQQGNVFSCSVMHEALHNHYTQKSLSLSP
light: DIVMTQSPATLSLSPGERATLSCTSSQSVYHANWLSWFQQKPGQPPKLLIYWASTLAYGVPSRFSGSGSGTDFTLTISSLQPEDAATYYCAGGYGGGRYAFGQGTKVEIKRTVAAPSVFIFPPSDEQLKSGTASVVCLLNNFYPREAKVQWKVDNALQSGNSQESVTEQDSKDSTYSLSSTLTLSKADYEKHKVYACEVTHQGLSSPVTKSFNRGEC
notes: EU numbering
As to B6, the results for the “KD fold (SG1 = 1)” value in test [6] and in test [7] were 1.1 fold and 0.09 fold, respectively. Also, the values for the Kd in test [7] and in test [8] were 4.1 µM and 1.4 µM, respectively.

B7: MS1032LO19-SG1081 (antibody, name in EU numbering)
heavy: QVQLVESGGGLVQPGGSLRLSCAVSGIDLSHDDISWVRQAPGKGLEWVSIISYAGSTYYASWAKGRLTISKDTSKNQVVLTMTNMDPVDTATYYCARGVPAYSHGGDLWGQGTLVTVSSASTKGPSVFPLAPSSKSTSGGTAALGCLVKDYFPEPVTVSWNSGALTSGVHTFPAVLQSSGLYSLSSVVTVPSSSLGTQTYICNVNHKPSNTKVDKKVEPKSCDKTHTCPPCPAPELWNGPSVFLFPPKPKDTLMISRTPEVTCVVVDVSDEDPEVKFNWYVDGVEVHNAKTKPREELYNSTYRVVSVLTVLHRDWLNGKEYKCKVSNTALPKPIEKTISKAKGQRREPQVYTLPPSREEMTKNQVSLTCLVKGFYPSDIAVEWESNGQPENNYKTTPPVLDSDGSFFLYSKLTVDKSRWQQGNVFSCSVMHEALHAHYTRKELSLSP
light: DIVMTQSPATLSLSPGERATLSCTTSQSVYHENWLSWFQQKPGQPPKLLIYWASTLAYGVPSRFSGSGSGTDFTLTISSLQPEDAATYYCAGGYGGGRYAFGQGTKVEIKRTVAAPSVFIFPPSDEQLKSGTASVVCLLNNFYPREAKVQWKVDNALQSGNSQESVTEQDSKDSTYSLSSTLTLSKADYEKHKVYACEVTHQGLSSPVTKSFNRGEC
notes: tied to rows r19/r37 by row order only; also called MS103240H795-SG1081
On to B7, for which the “KD fold (SG1 = 1)” value in test [5] was determined as 0.09 fold.

B8: MS1032LO19-SG1077 (antibody, name in EU numbering)
heavy: QVQLVESGGGLVQPGGSLRLSCAVSGIDLSHDDISWVRQAPGKGLEWVSIISYAGSTYYASWAKGRLTISKDTSKNQVVLTMTNMDPVDTATYYCARGVPAYSHGGDLWGQGTLVTVSSASTKGPSVFPLAPSSKSTSGGTAALGCLVKDYFPEPVTVSWNSGALTSGVHTFPAVLQSSGLYSLSSVVTVPSSSLGTQTYICNVNHKPSNTKVDKKVEPKSCDKTHTCPPCPAPELWNGPSVFLFPPKPKDTLMISRTPEVTCVVVDVSDEDPEVKFNWYVDGVEVHNAKTKPREELYNSTYRVVSVLTVLHRDWLNGKEYKCKVSNTALPKPIEKTISKAKGQRREPQVYTLPPSREEMTKNQVSLTCLVKGFYPSDIAVEWESNGQPENNYKTTPPVLDSDGSFFLYSKLTVDKSRWQQGNVFSCSVLHEALHAHTTRKELSLSP
light: DIVMTQSPATLSLSPGERATLSCTTSQSVYHENWLSWFQQKPGQPPKLLIYWASTLAYGVPSRFSGSGSGTDFTLTISSLQPEDAATYYCAGGYGGGRYAFGQGTKVEIKRTVAAPSVFIFPPSDEQLKSGTASVVCLLNNFYPREAKVQWKVDNALQSGNSQESVTEQDSKDSTYSLSSTLTLSKADYEKHKVYACEVTHQGLSSPVTKSFNRGEC
notes: tied to rows r16/r34 by row order only; also called MS103240H795-SG1077
Take B8: in test [5], the “KD fold (SG1 = 1)” value came out at 0.09 fold.

These data come from US20250076311A1 (Chugai, published 2025).
